How the values were obtained:
Details in all cases: remark: other sources report otherwise
[1] = biological target: T1, human recombinant HSP60 (without mitochondrial signal sequence) (human), P10809; experiment: small angle X-ray scattering (SAXS); 1 mM ATP; 3.0 mg/mL HSP60 or GroEL with various concentrations of co-chaperone, buffer D, 25 °C; self-association: single ring (7) to double ring (14)
[2] = biological target: T1, human recombinant HSP60 (without …); experiment: SEC; Superdex 200 10/300 GL, 0.41 μM HSP60 or GroEL, 0.1 M NaCl, 5% glycerol, 50 mM HEPES-KOH pH 7.4, no nucleotide; size from a calibration curve
[3] = biological target: T1, human recombinant HSP60 (without …); experiment: transmission electron microscopy (uranyl acetate stain); 1 mM ATP; HSP60 (wild type or D398A) 0.1 μM alone or with HSP10 0.2 μM, or GroEL 0.1 μM with GroES 0.2 μM, buffer D, 25 °C, 10 min; more than 500 side views counted, three experiments; self-association: single ring (7) to double ring (14)
[4] = biological target: T1, human recombinant HSP60 (without …); experiment: transmission electron microscopy (uranyl acetate stain); 1 mM ADP; HSP60 0.1 μM alone or with HSP10 0.2 μM, buffer D, 25 °C, 10 min
[5] = biological target: T1, human recombinant HSP60 (without …); experiment: transmission electron microscopy (uranyl acetate stain); no nucleotide; HSP60 0.1 μM alone or with HSP10 0.2 μM, or GroEL 0.1 μM with GroES 0.2 μM, buffer D (10 mM MgCl2, 20 mM KCl, 1 mM DTT, 50 mM HEPES-KOH pH 7.4), 25 °C, 10 min

fraction of double-ring HSP60 (curve fitting, HSP60+ATP) [1]: 0.14 | fraction of single-ring HSP60 (curve fitting, HSP60+ATP) [1]: 0.86 | fraction of single-ring HSP60 without HSP10 (curve fitting, HSP10 and ATP present) [1]: 0.09 | percent of HSP60 in double rings (from I(0)/C, ATP, no HSP10) [1]: 50% | stoichiometry N [2]: 7.3 subunits | percent of HSP60-containing complexes with the double-ring structure (with HSP10 and ATP) [3]: 80% | percent of HSP60 in double rings, football-type and bullet-type (with HSP10 and ATP) [3]: 70% | percent of side views that are HSP60 (7), single ring alone (with HSP10 and ATP) [3]: 10% | percent of side views that are HSP60 (14), double ring alone (with HSP10 and ATP) [3]: 2% | stoichiometry N [4]: 7 | stoichiometry N [5]: 7
B1: human recombinant HSP60 (without mitochondrial signal sequence), P10809 27-573 (natural protein)
chain: AKDVKFGADARALMLQGVDLLADAVAVTMGPKGRTVIIEQSWGSPKVTKDGVTVAKSIDLKDKYKNIGAKLVQDVANNTNEEAGDGTTTATVLARSIAKEGFEKISKGANPVEIRRGVMLAVDAVIAELKKQSKPVTTPEEIAQVATISANGDKEIGNIISDAMKKVGRKGVITVKDGKTLNDELEIIEGMKFDRGYISPYFINTSKGQKCEFQDAYVLLSEKKISSIQSIVPALEIANAHRKPLVIIAEDVDGEALSTLVLNRLKVGLQVVAVKAPGFGDNRKNQLKDMAIATGGAVFGEEGLTLNLEDVQPHDLGKVGEVIVTKDDAMLLKGKGDKAQIEKRIQEIIEQLDVTTSEYEKEKLNERLAKLSDGVAVLKVGGTSDVEVNEKKDRVTDALNATRAAVEEGIVLGGGCALLRCIPALDSLTPANEDQKIGIEIIKRTLKIPAMTIAKNAGVEGSLIVEKIMQSSSEVGYDAMAGDFVNMVEKGIIDPTKVVRTALLDAAGVASLLTTAEVVVTEIPKEEKDPGMGAMGGMGGGMGGGMF

— paper PMC5855711
